{
  "source": "patent US10100120B2",
  "about": "“Antibody which specifically binds to human CRTH2” (KYOWA HAKKO KIRIN CO., LTD, priority 2015, dated 2018)",
  "molecules": {"B1": {"name": "LV0HV1: humanized Lym2 antibody, VL LV0 (SEQ ID NO: 33), VH HV1 (SEQ ID NO: 51) (antibody, V domains shown)", "VH": "EVQLVESGGGVVQPGRSLRLSCAASGFTFSNYYMAWVRQAPGKGLEWVATISYDGSSTYYRDSVKGRFTISRDNAKNSLYLQMNSLRAEDTATYYCARHRGYYYSGAGYFDYWGQGTMVTVSS", "VL": "DIVMTQTPLSLPVTPGESASISCRSSQSLEYSDGYTYLEWYLQKPGQSPQVLIYGVSNRFSGVPDRFSGSGSGTDFTLKISRVEAEDVGVYYCFQATHDPLTFGQGTKLEIK"}},
  "key": {"[1]": {"molecular_target": "T1, mutated human CRTH2 with amino acid substitution (Homo sapiens, UniProt Q9Y5Y4, D196A/T198A)", "T1 construct": "inserting genes encoding various mutants with amino acid substitution obtained by deleting termination codons; expressed in transfected cells; host or cells: CHO-S cells (Lifetechnologies), transient (phmAG1-MNLinker vector)", "T1 sequence (Q9Y5Y4 1-395 D196A/T198A)": "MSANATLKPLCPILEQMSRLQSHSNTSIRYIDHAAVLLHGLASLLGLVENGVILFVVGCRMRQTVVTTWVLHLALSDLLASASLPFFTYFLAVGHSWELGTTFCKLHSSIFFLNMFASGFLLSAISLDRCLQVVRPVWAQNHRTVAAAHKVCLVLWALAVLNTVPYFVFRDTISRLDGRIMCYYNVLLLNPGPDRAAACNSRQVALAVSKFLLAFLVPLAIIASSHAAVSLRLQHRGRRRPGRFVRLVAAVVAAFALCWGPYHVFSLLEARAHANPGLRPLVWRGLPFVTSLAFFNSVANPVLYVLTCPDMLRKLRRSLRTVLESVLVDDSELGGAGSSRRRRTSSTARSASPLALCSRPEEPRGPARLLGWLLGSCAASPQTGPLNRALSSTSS", "test": "Epitope analysis using CHO-S cells which express mutated human CRTH2 with amino acid substitution", "assay_type": "binding", "conditions": "mutant D196A and T198A; antibody 10 μg/mL; relative to wild-type = 100%", "procedure,_shortened": "(§1)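 CHO-S cells transiently expressing alanine-substituted human CRTH2 extracellular mutants, C-terminally Azami-Green tagged, 24 h post-transfection. Antibodies at 10 μg/mL, 4 °C 1 h, then Alexa647 anti-IgG secondary 4 °C 1 h; flow cytometry on Azami-Green-positive cells. Reactivity = Alexa647 intensity divided by Azami-Green intensity.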"}, "[2]": {"molecular_target": "T2, mutated human CRTH2 with amino acid substitution (Homo sapiens, UniProt Q9Y5Y4, D171A/I173A/T172A)", "T2 construct": "inserting genes encoding various mutants with amino acid substitution obtained by deleting termination codons; expressed in transfected cells; host or cells: CHO-S cells (Lifetechnologies), transient (phmAG1-MNLinker vector)", "T2 sequence (Q9Y5Y4 1-395 D171A/T172A/I173A)": "T1 sequence (Q9Y5Y4 1-395 D196A/T198A) with D171A, T172A, I173A, A196D, A198T", "test": "Epitope analysis using CHO-S cells which express mutated human CRTH2 with amino acid substitution", "assay_type": "binding", "conditions": "mutant D171A, T172A, and I173A; antibody 10 μg/mL; relative to wild-type = 100%", "procedure,_shortened": "as §1"}},
  "note": "Residue numbers refer to the chain shown, from its start.",
  "data": [
    {"molecule": "B1", "values": [
      {"measurement": "reactivity against cells expressing mutated human CRTH2", "setting": "[1]", "value": "lost"},
      {"measurement": "reactivity against cells expressing mutated human CRTH2", "setting": "[2]", "value": "greatly decreased"}
    ]}
  ]
}
